The results in this text go back to PMC9482650, “Quantitative fragmentomics allow affinity mapping of interactomes” (Nature Communications, 2022).

Among the targets are GORASP2, Q9H8Y8; AHNAK1, Q09666; DLG2_3, Q15700; GRIP2_5, Q9C0E4; HTRA2, O43464; TJP1_2, Q07157; Inadl_4, Q8NI35; GRIP2_3, Q9C0E4.
Assay in all cases: holdup assay
What all share (set-up): key: below the threshold = too weak to quantify, mostly under pKd 3.1 to 4

For the next experiment, the target named is T1, MPP6, Q9NZW5.
T1 sequence (Q9NZW5 125-219, limits assumed, looked up): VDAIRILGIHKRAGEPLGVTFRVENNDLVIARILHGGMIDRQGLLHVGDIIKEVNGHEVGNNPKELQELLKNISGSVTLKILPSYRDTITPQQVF

A further experiment deals with T2, CARD11, Q9BXL7.
T2 sequence (Q9BXL7 662-765, limits assumed, looked up): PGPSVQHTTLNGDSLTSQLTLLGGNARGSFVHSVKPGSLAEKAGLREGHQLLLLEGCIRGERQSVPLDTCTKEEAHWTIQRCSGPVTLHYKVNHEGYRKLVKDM

The next experiment deals with T3, TJP3_3, O95049.
T3 sequence (O95049 375-456, limits assumed, looked up): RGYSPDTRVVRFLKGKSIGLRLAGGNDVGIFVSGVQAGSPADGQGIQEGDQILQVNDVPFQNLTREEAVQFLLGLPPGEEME

The next experiment has as its target T4, LNX2_2, Q8N448.
T4 sequence (Q8N448 334-432, limits assumed, looked up): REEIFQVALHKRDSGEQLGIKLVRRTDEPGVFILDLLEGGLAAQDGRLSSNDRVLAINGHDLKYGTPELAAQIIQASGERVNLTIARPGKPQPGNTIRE

A further experiment concerns the target T5, SNTA1, Q13424.
T5 sequence (Q13424 82-180, limits assumed, looked up): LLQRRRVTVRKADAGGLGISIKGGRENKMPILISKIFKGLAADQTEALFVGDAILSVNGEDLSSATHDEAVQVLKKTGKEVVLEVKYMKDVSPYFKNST

A further experiment has as its target T6, GRIP1_2, Q9Y3R0.
T6 sequence (Q9Y3R0 145-248, limits assumed, looked up): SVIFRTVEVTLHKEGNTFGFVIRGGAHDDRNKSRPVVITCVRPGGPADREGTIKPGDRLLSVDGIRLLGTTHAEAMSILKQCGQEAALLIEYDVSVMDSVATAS

In a further experiment the target is T7, GRIP1_5, Q9Y3R0.
T7 sequence (Q9Y3R0 568-668, limits assumed, looked up): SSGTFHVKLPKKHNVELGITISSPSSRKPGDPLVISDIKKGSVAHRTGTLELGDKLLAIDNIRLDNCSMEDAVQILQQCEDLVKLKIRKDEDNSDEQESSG

Another experiment addresses T8, APBA1_1, Q02410.
T8 sequence (Q02410 651-752, limits assumed, looked up): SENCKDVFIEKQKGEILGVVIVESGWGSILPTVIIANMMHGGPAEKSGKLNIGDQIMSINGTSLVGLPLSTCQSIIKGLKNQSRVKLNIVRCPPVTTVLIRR

The next experiment addresses T9, GRIP1_3, Q9Y3R0.
T9 sequence (Q9Y3R0 247-346, limits assumed, looked up): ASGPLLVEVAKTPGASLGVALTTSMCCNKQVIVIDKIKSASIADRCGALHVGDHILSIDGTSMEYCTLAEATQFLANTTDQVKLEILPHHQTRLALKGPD

A further experiment addresses T10, MPDZ_10, O75970.
T10 sequence (O75970 1624-1722, limits assumed, looked up): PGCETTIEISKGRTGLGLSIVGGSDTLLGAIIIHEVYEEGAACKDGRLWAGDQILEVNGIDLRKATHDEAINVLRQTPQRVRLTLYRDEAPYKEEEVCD

Another experiment has as its target T11, PTPN13_1, Q12923.
T11 sequence (Q12923 1088-1188, limits assumed, looked up): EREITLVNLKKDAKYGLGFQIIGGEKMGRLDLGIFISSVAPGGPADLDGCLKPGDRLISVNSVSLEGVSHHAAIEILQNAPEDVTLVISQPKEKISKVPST

Another experiment addresses T12, TX1BP3, O14907.
T12 sequence (O14907 10-122, limits assumed, looked up): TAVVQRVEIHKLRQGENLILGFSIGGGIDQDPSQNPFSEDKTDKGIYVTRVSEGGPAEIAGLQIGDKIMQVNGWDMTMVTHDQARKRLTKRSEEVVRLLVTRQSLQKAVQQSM

The target of the next experiment is T13, DFNB31_2, Q9P202.
T13 sequence (Q9P202 274-371, limits assumed, looked up): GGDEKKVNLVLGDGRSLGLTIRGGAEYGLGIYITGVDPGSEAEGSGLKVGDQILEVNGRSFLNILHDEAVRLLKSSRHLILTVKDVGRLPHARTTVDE

Another experiment has as its target T14, SIPA1L2, Q9P2F8.
T14 sequence (Q9P2F8 945-1036, limits assumed, looked up): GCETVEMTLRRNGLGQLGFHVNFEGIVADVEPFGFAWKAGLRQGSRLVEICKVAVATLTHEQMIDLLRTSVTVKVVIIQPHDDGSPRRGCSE

Setting [1] is: plain residues with an end cap or a label only (N-terminal biotin on a linker: ado-ado).
[2] abbreviates: plain residues with an end cap or a label only (N-terminal biotin on a linker: ttds).

AHNAK1, Q09666, sequence (Q09666 4-100): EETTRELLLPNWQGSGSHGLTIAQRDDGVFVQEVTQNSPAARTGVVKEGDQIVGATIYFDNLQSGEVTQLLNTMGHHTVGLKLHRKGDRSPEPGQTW
Inadl_4, Q8NI35, sequence (Q8NI35 547-651): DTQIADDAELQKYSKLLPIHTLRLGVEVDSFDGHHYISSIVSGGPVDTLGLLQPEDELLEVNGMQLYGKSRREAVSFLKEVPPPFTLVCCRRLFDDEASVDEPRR
TJP1_2, Q07157, sequence (Q07157 181-274): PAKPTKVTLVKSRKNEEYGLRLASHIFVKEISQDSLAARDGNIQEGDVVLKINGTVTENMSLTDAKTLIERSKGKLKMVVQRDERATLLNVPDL
GRIP2_5, Q9C0E4, sequence (Q9C0E4 544-642): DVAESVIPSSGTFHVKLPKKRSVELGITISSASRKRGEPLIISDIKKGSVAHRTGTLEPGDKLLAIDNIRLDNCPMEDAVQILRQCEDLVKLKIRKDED
GRIP2_3, Q9C0E4, sequence (Q9C0E4 238-339): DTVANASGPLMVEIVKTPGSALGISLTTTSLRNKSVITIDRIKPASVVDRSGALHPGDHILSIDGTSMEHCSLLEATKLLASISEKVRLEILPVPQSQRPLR
HTRA2, O43464, sequence (O43464 355-458): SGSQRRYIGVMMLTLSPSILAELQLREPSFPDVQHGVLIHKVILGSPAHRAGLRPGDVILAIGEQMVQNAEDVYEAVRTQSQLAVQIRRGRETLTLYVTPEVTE

For the molecule EDLTKNHDEL [RCN1, Q15293], the pKd (usually the negative decadic logarithm of the Kd, by convention in mol/L) with MPP6, Q9NZW5 (setting [1]) is “below the threshold”; with CARD11, Q9BXL7 (setting [1]) it was “below the threshold”; in the experiment with GORASP2, Q9H8Y8 (setting [1]) it was “below the threshold”; in the experiment with TJP3_3, O95049 (setting [1]) it was “below the threshold”; with LNX2_2, Q8N448 (setting [1]) it was “below the threshold”; with AHNAK1, Q09666 (setting [1]) it was “below the threshold”. Further, the pKd was 3.5 with SNTA1, Q13424 (setting [1]); “below the threshold” with GRIP1_2, Q9Y3R0 (setting [1]); 3.52 in the experiment with GRIP1_5, Q9Y3R0 (setting [1]); “below the threshold” in the experiment with APBA1_1, Q02410 (setting [1]); “below the threshold” with GRIP1_3, Q9Y3R0 (setting [1]); “below the threshold” with DLG2_3, Q15700 (setting [1]). The pKd result with GRIP2_5, Q9C0E4 (setting [1]) is listed as “below the threshold”; in the experiment with MPDZ_10, O75970 (setting [1]), “below the threshold”; in the experiment with HTRA2, O43464 (setting [1]) it was “below the threshold”; with PTPN13_1, Q12923 (setting [1]), “below the threshold”; with TX1BP3, O14907 (setting [1]), “below the threshold”; in the experiment with TJP1_2, Q07157 (setting [1]), “below the threshold”. The pKd result is “below the threshold” in the experiment with Inadl_4, Q8NI35 (setting [1]); “below the threshold” in the experiment with DFNB31_2, Q9P202 (setting [1]); “below the threshold” with SIPA1L2, Q9P2F8 (setting [1]); 3.51 with GRIP2_3, Q9C0E4 (setting [1]).

LDSQIQETSI [MAP4, P27816]: the pKd entry with MPP6, Q9NZW5 (setting [2]) is recorded as “below the threshold”; in the experiment with CARD11, Q9BXL7 (setting [2]), “below the threshold”; in the experiment with GORASP2, Q9H8Y8 (setting [2]), “below the threshold”; with TJP3_3, O95049 (setting [2]), “below the threshold”; in the experiment with LNX2_2, Q8N448 (setting [2]) it was “below the threshold”; in the experiment with AHNAK1, Q09666 (setting [2]), “below the threshold”. Moreover, the pKd with SNTA1, Q13424 (setting [2]) was 4.8; with GRIP1_2, Q9Y3R0 (setting [2]), “below the threshold”; with GRIP1_5, Q9Y3R0 (setting [2]) it was “below the threshold”; with APBA1_1, Q02410 (setting [2]) it was “below the threshold”; with GRIP1_3, Q9Y3R0 (setting [2]), “below the threshold”; in the experiment with DLG2_3, Q15700 (setting [2]), 4.07. The pKd entry was “below the threshold” with GRIP2_5, Q9C0E4 (setting [2]); “below the threshold” with MPDZ_10, O75970 (setting [2]); “below the threshold” with HTRA2, O43464 (setting [2]); “below the threshold” in the experiment with PTPN13_1, Q12923 (setting [2]); 3.96 in the experiment with TX1BP3, O14907 (setting [2]); “below the threshold” with TJP1_2, Q07157 (setting [2]). Besides, the pKd entry was “below the threshold” in the experiment with Inadl_4, Q8NI35 (setting [2]); “below the threshold” in the experiment with DFNB31_2, Q9P202 (setting [2]); “below the threshold” in the experiment with SIPA1L2, Q9P2F8 (setting [2]); “below the threshold” with GRIP2_3, Q9C0E4 (setting [2]).

Take NYWPGKETQL [SLCO1C1, Q9NYB5]: the pKd with MPP6, Q9NZW5 (setting [2]) was 3.74; in the experiment with CARD11, Q9BXL7 (setting [2]) it was “below the threshold”; in the experiment with GORASP2, Q9H8Y8 (setting [2]), 3.98; in the experiment with TJP3_3, O95049 (setting [2]), “below the threshold”; with LNX2_2, Q8N448 (setting [2]), “below the threshold”; in the experiment with AHNAK1, Q09666 (setting [2]), “below the threshold”. Also, the pKd in the experiment with SNTA1, Q13424 (setting [2]) is 5.51; with GRIP1_2, Q9Y3R0 (setting [2]) it was “below the threshold”; with GRIP1_5, Q9Y3R0 (setting [2]), “below the threshold”; in the experiment with APBA1_1, Q02410 (setting [2]) it was “below the threshold”; with GRIP1_3, Q9Y3R0 (setting [2]), “below the threshold”; with DLG2_3, Q15700 (setting [2]), 4.69. For the same molecule, the pKd entry with GRIP2_5, Q9C0E4 (setting [2]) was “below the threshold”; in the experiment with MPDZ_10, O75970 (setting [2]), “below the threshold”; in the experiment with HTRA2, O43464 (setting [2]) it was “below the threshold”; with PTPN13_1, Q12923 (setting [2]) it was “below the threshold”; in the experiment with TX1BP3, O14907 (setting [2]) it was 5.47; with TJP1_2, Q07157 (setting [2]), “below the threshold”. The pKd entry in the experiment with Inadl_4, Q8NI35 (setting [2]) is “below the threshold”; with DFNB31_2, Q9P202 (setting [2]) it was 4.36; with SIPA1L2, Q9P2F8 (setting [2]), “below the threshold”; with GRIP2_3, Q9C0E4 (setting [2]) it was “below the threshold”.

As to GFGEERESIL [KIDINS220, Q9ULH0], the pKd entry is “below the threshold” in the experiment with MPP6, Q9NZW5 (setting [1]); “below the threshold” with CARD11, Q9BXL7 (setting [1]); “below the threshold” with GORASP2, Q9H8Y8 (setting [1]); “below the threshold” in the experiment with TJP3_3, O95049 (setting [1]); “below the threshold” with LNX2_2, Q8N448 (setting [1]); “below the threshold” in the experiment with AHNAK1, Q09666 (setting [1]). The pKd with SNTA1, Q13424 (setting [1]) was 5.26; with GRIP1_2, Q9Y3R0 (setting [1]), “below the threshold”; in the experiment with GRIP1_5, Q9Y3R0 (setting [1]), “below the threshold”; in the experiment with APBA1_1, Q02410 (setting [1]), “below the threshold”; with GRIP1_3, Q9Y3R0 (setting [1]), “below the threshold”; with DLG2_3, Q15700 (setting [1]) it was “below the threshold”. Further, the pKd result in the experiment with GRIP2_5, Q9C0E4 (setting [1]) was “below the threshold”; with MPDZ_10, O75970 (setting [1]), “below the threshold”; with HTRA2, O43464 (setting [1]) it was “below the threshold”; with PTPN13_1, Q12923 (setting [1]) it was “below the threshold”; with TX1BP3, O14907 (setting [1]) it was 3.73; with TJP1_2, Q07157 (setting [1]), “below the threshold”. The pKd entry with Inadl_4, Q8NI35 (setting [1]) is on record as “below the threshold”; with DFNB31_2, Q9P202 (setting [1]), “below the threshold”; with SIPA1L2, Q9P2F8 (setting [1]), “below the threshold”; with GRIP2_3, Q9C0E4 (setting [1]), “below the threshold”.
